# Legend:
# [1] = target: the molecule itself; assay: cryo-EM structure; helical reconstruction of the helical stems of double-headed nucleocapsids (RELION 3.1); protein with bound host RNA in 20 mM Tris-HCl pH 7.4, 150 mM NaCl
# [2] = target: the molecule itself; assay: cryo-EM imaging of filaments; nucleoprotein fractions from HEK293F lysate after two-step sucrose ultracentrifugation, put directly on cryo-EM grids
# [3] = target: the molecule itself; assay: electron microscopy of purified filaments; purified mutant nucleoproteins imaged by EM; whether negative stain or cryo-EM is not told in the text shown
protein,measurement,setting,value
"Sendai virus nucleoprotein, wild type, uncleaved (NWT), assembled as nucleocapsid NCWT (natural protein, Sendai virus nucleoprotein (N), wild type, uncleaved; the N-tail is printed as 404-524; helical polymer, number of protomers not fixed; also called SeV nucleoprotein; SeV nucleocapsid; source: E. coli BL21 (DE3), purified (HisTrap HP, Superose 6 increase)) MAGLLSTFDTFSSRRSESINKSGGGAVIPGQRSTVSVFVLGPSVTDDADKLSIATTFLAHSLDTDKQHSQRGGFLVSLLAMAYSSPELYLTTNGVNADVKYVIYNIEKDPKRTKTDGFIVKTRDMEYERTTEWLFGPMVNKSPLFQGQRDAADPDTLLQIYGYPACLGAIIVQVWIVLVKAITSSAGLRKGFFNRLEAFRQDGTVKGALVFTGETVEGIGSVMRSQQSLVSLMVETLVTMNTARSDLTTLEKNIQIVGNYIRDAGLASFMNTIKYGVETKMAALTLSNLRPDINKLRSLIDTYLSKGPRAPFICILKDPVHGEFAPGNYPALWSYAMGVAVVQNKAMQQYVTGRTYLDMEMFLLGQAVAKDAESKISSALEDELGVTDTAKERLRHHLANLSGGDGAYHKPTGGGAIEVALDNADIDLEPEAHTDQDARGWGGDSGDRWARSMGSGHFITLHGAERLEEETNDEDVSDIERRIARRLAERRQEDATTHEDEGRNNGVDHDEEDDAAAAAGMGGI",binding result,[1],binds
"Sendai virus nucleoprotein NWT over-expressed in HEK293F cells (natural protein, Sendai virus nucleoprotein (N), wild type; Fractions were chosen by western blot against the 6xHis tag; also called NWT in pCAGGS; nucleoproteins isolated from HEK293F cells; source: HEK293F, transfected, isolated from lysate by two-step sucrose ultracentrifugation; not shown: His6, C-terminal, kept) MAGLLSTFDTFSSRRSESINKSGGGAVIPGQRSTVSVFVLGPSVTDDADKLSIATTFLAHSLDTDKQHSQRGGFLVSLLAMAYSSPELYLTTNGVNADVKYVIYNIEKDPKRTKTDGFIVKTRDMEYERTTEWLFGPMVNKSPLFQGQRDAADPDTLLQIYGYPACLGAIIVQVWIVLVKAITSSAGLRKGFFNRLEAFRQDGTVKGALVFTGETVEGIGSVMRSQQSLVSLMVETLVTMNTARSDLTTLEKNIQIVGNYIRDAGLASFMNTIKYGVETKMAALTLSNLRPDINKLRSLIDTYLSKGPRAPFICILKDPVHGEFAPGNYPALWSYAMGVAVVQNKAMQQYVTGRTYLDMEMFLLGQAVAKDAESKISSALEDELGVTDTAKERLRHHLANLSGGDGAYHKPTGGGAIEVALDNADIDLEPEAHTDQDARGWGGDSGDRWARSMGSGHFITLHGAERLEEETNDEDVSDIERRIARRLAERRQEDATTHEDEGRNNGVDHDEEDDAAAAAGMGGI",binding result,[2],binds
"Sendai virus nucleoprotein loop mutant (residues 118 to 127 replaced with all alanine) (natural protein, Sendai virus nucleoprotein (N), derivative of NWT; also called Loop118–127 mutant; source: E. coli BL21 (DE3), purified (HisTrap HP, Superose 6 increase)) MAGLLSTFDTFSSRRSESINKSGGGAVIPGQRSTVSVFVLGPSVTDDADKLSIATTFLAHSLDTDKQHSQRGGFLVSLLAMAYSSPELYLTTNGVNADVKYVIYNIEKDPKRTKTDGAAAAAAAAAAERTTEWLFGPMVNKSPLFQGQRDAADPDTLLQIYGYPACLGAIIVQVWIVLVKAITSSAGLRKGFFNRLEAFRQDGTVKGALVFTGETVEGIGSVMRSQQSLVSLMVETLVTMNTARSDLTTLEKNIQIVGNYIRDAGLASFMNTIKYGVETKMAALTLSNLRPDINKLRSLIDTYLSKGPRAPFICILKDPVHGEFAPGNYPALWSYAMGVAVVQNKAMQQYVTGRTYLDMEMFLLGQAVAKDAESKISSALEDELGVTDTAKERLRHHLANLSGGDGAYHKPTGGGAIEVALDNADIDLEPEAHTDQDARGWGGDSGDRWARSMGSGHFITLHGAERLEEETNDEDVSDIERRIARRLAERRQEDATTHEDEGRNNGVDHDEEDDAAAAAGMGGI",binding result,[3],binds

# From paper PMC8062630, “Structure and assembly of double-headed Sendai virus nucleocapsids” (Communications Biology, 2021)
